± gives the standard deviation.
Test: protein stability index of a GFP-peptide fusion (GPS, HEK-293T) (PSI 1-6); higher = more stable
[1] = treatment: DMSO, c terminus: a fixed tail appended
[2] = treatment: MLN4924 1 uM, 8 h, c terminus: a fixed tail appended
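Also: 24-mer peptide tiles fused after GFP, lentivirally expressed, FACS-sorted into six equal bins by GFP/DsRed ratio, decoded by Illumina sequencing, PSI is the read-weighted mean bin number.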

Row | Sequence | protein stability index [1] | protein stability index [2] | protein stability index (treatment: DMSO, c terminus: native) | protein stability index (treatment: MLN4924 1 uM, 8 h, c terminus: native)
1 | YAKVKEFIVDILQFLDIGPDVTRV [MATN2] | 3.84 ± 0.32 | 3.81 ± 0.084 |  | 
2 | RQVVDILWSDPMAQEGCKANTIRG [PPEF2] | 3.14 ± 0.31 | 3.55 ± 0.38 |  | 
3 | GKQAPRKKAQGKTQQNRKLTDFYP [KMT5A] | 3.64 ± 0.42 | 4.21 ± 0.41 |  | 
4 | RELDAISTNEEEKEENEAESDVKH [PRIM1] | 5.57 ± 0.17 | 5.62 ± 0.24 |  | 
5 | LTKLLASKSKEEVSSLISEKTNGA [FEM1C] | 4.07 ± 0.22 | 4.38 ± 0.26 |  | 
6 | GYFAFMLFRKRLGSMILAFRPRPN [GDAP1] | 2.69 ± 0.79 | 2.37 ± 0.57 |  | 
7 | IRQEFDKLREFLRVEEQAILDAMA [TRIM35] | 2.91 ± 0.31 | 2.97 ± 0.69 |  | 
8 | LMKHKSRKRRLFCTMEPEPVQPGM [TRIM35] | 3.51 ± 0.49 | 3.43 ± 0.17 |  | 
9 | AVPEDLADRLVRVHGDPAVWWVSQ [FUT8] | 2.61 ± 0.29 | 2.65 ± 0.039 |  | 
10 | MLESPGAPCRSAQASVSCALEALE [HDAC6] | 3.35 ± 0.58 | 3.38 ± 0.4 |  | 
11 | VCYHYYADWFMSLGVGLLTFASLE [TMEM40] | 3.04 ± 0.18 | 3.08 ± 0.18 |  | 
12 | ITPQGVAMRAGVLADDHLIEVNGE [PDZK1] | 4.72 ± 0.095 | 4.78 ± 0.22 |  | 
13 | RLKEMKLLRDQFVKALEDFEDLCD [FAM9B] | 2.27 ± 0.13 | 2.52 ± 0.38 |  | 
14 | FFRMFDRNTKRDVTLEASRENSKP [PPP2R2B] | 3.45 ± 0.14 | 3.82 ± 0.23 |  | 
15 | KGCLKLCRRCYDWIHRPGCRCKNS [SPRY1] | 3.04 ± 0.2 | 3.46 ± 0.2 |  | 
16 | RRRSRKKPSGALGSESYKSSAGSA [EHMT1] | 4.86 ± 0.32 | 5.3 ± 0.073 |  | 
17 | SSDGSNFGWETKIKAWMDRYEEAN [KMT2E] | 3.79 ± 0.18 | 3.83 ± 0.15 |  | 
18 | VASCMHRQETVDCLKKFNARRKLK [CAMK2A] | 4.05 ± 0.69 | 4.03 ± 0.26 |  | 
19 | GKGSIKELFPTGKQLEPLVAPLAD [VPS39] | 4.08 ± 0.26 | 4.08 ± 0.11 |  | 
20 | MCRVDLRGHMPEWYTKSFGHLCAA [DLC1] | 2.23 ± 0.43 | 2.1 ± 0.53 |  | 
21 | MSHHPSGLRAGFSSTSYRRTFGPP [PRPH] | 2.92 ± 0.23 | 2.94 ± 0.1 |  | 
22 | RWDPVRRRFIQSCPIIRIPNRFLR [KLHDC10] | 2.48 ± 0.42 | 2.49 ± 0.2 |  | 

Row | Sequence | protein stability index [1] | protein stability index [2] | protein stability index (treatment: DMSO, c terminus: native) | protein stability index (treatment: MLN4924 1 uM, 8 h, c terminus: native)
23 | MGCLGVAKEDGKADTKKRHTPRGH [SMOC2] | 5.15 ± 0.17 | 5 ± 0.12 |  | 
24 | GGLMARPEYREWNPELIKPKKLLN [FAM107A] | 3.68 ± 0.36 | 4.495 ± 0.034 |  | 
25 | QGPGGDEDDDEEDTDKLLNSASDP [PSD2] | 5.59 ± 0.26 | 5.54 ± 0.21 |  | 
26 | IPLYPLGCLAEAVSVIQSIPIFNE [HACD3] | 2.7 ± 0.47 | 2.97 ± 0.81 |  | 
27 | KYDMEVRVQKTSKELEDMNQKLFD [TNNI2] | 4.81 ± 0.13 | 4.73 ± 0.2 |  | 
28 | RRRQRSEKKKAHYRQSSFPHCSDL [KCNA4] | 3.66 ± 0.16 | 3.98 ± 0.19 |  | 
29 | SDGGQKNKPREHIIDCGDIVWSLA [WSB1] | 3.07 ± 0.36 | 3.23 ± 0.21 |  | 
30 | ITNTDVDCLKACQEQIEAVLLNSL [CCND2] | 2.73 ± 0.2 | 2.86 ± 0.39 |  | 
31 | IELLTGETWNPFKLQYQLRNVRER [GOLPH3L] | 2.29 ± 0.27 | 2.49 ± 0.21 |  | 
32 | PLRLFLIIANTMAFQNDVYEWARD [SCD] | 2.75 ± 0.61 | 2.87 ± 0.61 |  | 
33 | MKACQEDDVRLLCHLTPSIYTEFP [INTS3] | 2.62 ± 0.28 | 2.55 ± 0.25 |  | 
34 | LMLGKTSISDLSEHVFDLILELYN [PDS5B] | 2.59 ± 0.33 | 2.44 ± 0.47 |  | 
35 | AAETRGAVEGAARTTPSRREITGV [PALM] | 4.86 ± 0.36 | 5.07 ± 0.18 |  | 
36 | PIRNRAFYMEEGVPYCERDYEKMF [PDLIM7] | 3.3 ± 0.31 | 3.43 ± 0.34 |  | 
37 | LSKDHQEVETEGPESADTGDKSES [TOR1AIP2] | 5.67 ± 0.18 | 5.59 ± 0.19 |  | 
38 | EKSTVVEGGEVRFNGKGKKIRKPR [DLX1] | 4.77 ± 0.28 | 5.06 ± 0.33 |  | 
39 | IYEFWENSSVWNSHLQTNYSKTFQ [NECAB1] | 2.28 ± 0.31 | 2.16 ± 0.26 |  | 
40 | VKDDDRLTFHRHPVAQSTDGIRGK [SPSB4] | 4.89 ± 0.25 | 4.83 ± 0.23 |  | 
41 | QLRFQHSQDVSDCYLELFPAHLYF [PLEKHN1] | 2.32 ± 0.54 | 2.27 ± 0.28 |  | 
42 | EELANLRASQREYEELRNSERAEV [RSPH3] | 5.21 ± 0.4 | 5.18 ± 0.31 |  | 
43 | RYLFLDGDSHYEIEIVHISTVQIL [ZFYVE21] | 2.89 ± 0.26 | 2.61 ± 0.4 |  | 
44 | THKKCKEEVVSTLDAVQVLSGVSQ [FCHO1] | 3.77 ± 0.23 | 3.64 ± 0.16 |  | 

Row | Sequence | protein stability index [1] | protein stability index [2] | protein stability index (treatment: DMSO, c terminus: native) | protein stability index (treatment: MLN4924 1 uM, 8 h, c terminus: native)
45 | ELIGACEFMKDRLYFATLRNRPKS [CDC14A] | 2.1 ± 0.5 | 2.24 ± 0.19 |  | 
46 | GRNRLYHDGKNQPSKTYPAFLEPD [SPSB1] | 4.13 ± 0.12 | 4.37 ± 0.072 |  | 
47 | PKCSCGQLAAVHLSKSRTDYQPTQ [RNF180] | 2.55 ± 0.17 | 2.63 ± 0.35 |  | 
48 | QSFREQEEPSNKRVRPLARVTSLA [NET1] | 4.21 ± 0.17 | 4.23 ± 0.097 |  | 
49 | KTTIPEEEEEEEEAAGVVVEEELF [LMNB1] | 5.55 ± 0.29 | 5.62 ± 0.2 |  | 
50 | APDRATAVATASRLGPYVLLEPEE [TRIB3] | 5.04 ± 0.31 | 5.04 ± 0.24 |  | 
51 | TFYVRFFLTYVPLLGLKAFLGLFF [FADS1] | 2.93 ± 0.3 | 3.24 ± 0.29 |  | 
52 | RRGQEPLSALLQFGVTYLEDYSAE [BCL2L13] | 3.11 ± 0.3 | 3.17 ± 0.43 |  | 
53 | PGCGYFCTAGNFMECQPESSISHR [EHMT1] | 2.64 ± 0.15 | 2.61 ± 0.53 |  | 
54 | REQADSCREQLDIMNDLSNRVWSI [TRIM14] | 2.23 ± 0.11 | 2.28 ± 0.46 |  | 
55 | DNANILLQIDNARLAADDFRTKFE [KRT17] | 3.27 ± 0.26 | 3.71 ± 0.28 |  | 
56 | LAQIAEVLEMFDLRMMVENIMNKE [RHOBTB1] | 2.54 ± 0.35 | 2.22 ± 0.12 |  | 
57 | SLLQPVTPLGTSRWRKISAALPY [NCF4] |  |  | 2.54 ± 0.27 | 2.24 ± 0.28
58 | AGARKIYAVEASTMAQHAEVLVKS [CARM1] | 3.79 ± 0.39 | 4.07 ± 0.58 |  | 
59 | EFKQNIENVSVEMLLRKFAESKGT [FCHO1] | 2.84 ± 0.27 | 3.02 ± 0.32 |  | 
60 | AGLASGLLNQQSLKRSANQMGVSA [MED27] | 3.62 ± 0.06 | 3.69 ± 0.096 |  | 
61 | LGDMQTAREGAGLVVASGVIYCLG [KLHL12] | 2.47 ± 0.45 | 2.29 ± 0.8 |  | 
62 | MQCLISNVEAQLSEIRCDLERQNQ [KRT36] | 3.53 ± 0.11 | 3.32 ± 0.22 |  | 
63 | VYYIFERLCAPLFRNIKQEPFSAR [SOAT1] | 2.5 ± 0.71 | 2.61 ± 0.5 |  | 
64 | SYYDPGRLICDFPFDGLLEERALL [VPS39] | 2.4 ± 0.34 | 2.68 ± 0.29 |  | 
65 | YEKFKLYLTIILILISFTCRFLLN [TMEM120A] | 3.05 ± 0.21 | 2.91 ± 0.39 |  | 
